# Test results: patent publication US20240226314A1 (Sanofi, published 2024)
# Values joined by “and” are separate entries in the source; they are usually repeats but may differ in a detail not shown here. Identical values can stand only once. Like-named read-outs stand apart in the source and are kept apart here.
# T1: His-tagged cynomolgus monkey TfR ectodomain (cyTFRC_89_760; mature protein) (cynomolgus monkey (Macaca fascicularis), UniProt Q5RDH6 89-760 (Pongo abelii entry))
# T1 construct: also called cTfR; cTfR ectodomain
# T1 chain: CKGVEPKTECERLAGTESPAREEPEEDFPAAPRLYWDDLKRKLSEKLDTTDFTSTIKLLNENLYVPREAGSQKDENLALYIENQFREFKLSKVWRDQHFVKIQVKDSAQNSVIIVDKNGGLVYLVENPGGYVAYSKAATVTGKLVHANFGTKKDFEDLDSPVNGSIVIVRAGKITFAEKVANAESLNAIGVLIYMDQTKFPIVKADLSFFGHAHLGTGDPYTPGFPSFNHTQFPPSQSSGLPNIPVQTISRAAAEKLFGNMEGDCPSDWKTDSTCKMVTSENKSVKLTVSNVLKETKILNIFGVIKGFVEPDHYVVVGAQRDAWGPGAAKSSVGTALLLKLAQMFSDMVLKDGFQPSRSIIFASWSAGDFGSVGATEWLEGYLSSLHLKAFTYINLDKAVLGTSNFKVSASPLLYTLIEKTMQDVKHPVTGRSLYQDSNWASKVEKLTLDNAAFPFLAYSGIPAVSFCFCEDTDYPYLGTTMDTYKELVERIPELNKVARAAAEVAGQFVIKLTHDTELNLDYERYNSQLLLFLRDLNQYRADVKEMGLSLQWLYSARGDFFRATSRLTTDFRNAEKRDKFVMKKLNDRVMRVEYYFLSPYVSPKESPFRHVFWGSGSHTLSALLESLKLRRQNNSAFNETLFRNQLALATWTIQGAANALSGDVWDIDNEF
# B1: cTfR: AviTag fused in the N-terminus of the ectodomain of cTfR (amino acid residues 90 to 760 of SEQ ID NO: 2) (receptor)
# chain: GSHHHHHHHHGGGGSLNDIFEAQKIEWHGSKGVEPKTECERLAGTESPAREEPEEDFPAAPRLYWDDLKRKLSEKLDTTDFTSTIKLLNENLYVPREAGSQKDENLALYIENQFREFKLSKVWRDQHFVKIQVKDSAQNSVIIVDKNGGLVYLVENPGGYVAYSKAATVTGKLVHANFGTKKDFEDLDSPVNGSIVIVRAGKITFAEKVANAESLNAIGVLIYMDQTKFPIVKADLSFFGHAHLGTGDPYTPGFPSFNHTQFPPSQSSGLPNIPVQTISRAAAEKLFGNMEGDCPSDWKTDSTCKMVTSENKSVKLTVSNVLKETKILNIFGVIKGFVEPDHYVVVGAQRDAWGPGAAKSSVGTALLLKLAQMFSDMVLKDGFQPSRSIIFASWSAGDFGSVGATEWLEGYLSSLHLKAFTYINLDKAVLGTSNFKVSASPLLYTLIEKTMQDVKHPVTGRSLYQDSNWASKVEKLTLDNAAFPFLAYSGIPAVSFCFCEDTDYPYLGTTMDTYKELVERIPELNKVARAAAEVAGQFVIKLTHDTELNLDYERYNSQLLLFLRDLNQYRADVKEMGLSLQWLYSARGDFFRATSRLTTDFRNAEKRDKFVMKKLNDRVMRVEYYFLSPYVSPKESPFRHVFWGSGSHTLSALLESLKLRRQNNSAFNETLFRNQLALATWTIQGAANALSGDVWDIDNEF
# modifications: site-specific biotinylation on N-terminal Avitag
# notes: Immobilised on streptavidin probes for BLI; also called biotinylated cTfR ectodomain
# Key:
# [1] = biological target: B1; experiment: BLI; KD on cTfR against KD on hTfR
# Excerpt: (§1) A 1:1 binding model with global fitting was applied after double subtraction for buffer and probe analyte interaction with a 0-90 second association and 0-60 dissociation window.
# [2] = biological target: T2, hTfR: AviTag fused to the N-terminus of the ectodomain of human TfR (residues 90 to 760 of SEQ ID NO: 1) (human, UniProt P02786 90-760, site-specific biotinylation on N-terminal Avitag); experiment: BLI, immobilised AviTag-hTfR ectodomain, no saturation
# T2 construct: also called biotinylated hTfR ectodomain
# Excerpt: as §1, with “window. […] A 1:1 binding model with global fitting was applied after double subtraction for buffer and probe analyte interaction.” for “window.”
# [3] = biological target: T2, hTfR: AviTag fused to the N-terminus of …; experiment: BLI, immobilised hTfR pre-saturated with 500 nM human holo-transferrin (competitor)
# Excerpt: as §1, with “window. […] A 1:1 binding model with global fitting was applied after double subtraction for buffer and probe analyte interaction.” for “window.”
# [4] = biological target: T2, hTfR: AviTag fused to the N-terminus of …; experiment: BLI (Octet), biotinylated AviTag-TfR ectodomain on streptavidin probes, 1:1 global fit
# Excerpt: as §1
# [5] = biological target: B1; experiment: as above
# Excerpt: as §1
# [6] = biological target: T1, His-tagged cynomolgus monkey TfR …; experiment: SPR, His-tagged TfR ectodomain captured on anti-His, 1:1 fit
# Protocol: (§2) Binding of the humanized Fab variants to human, cynomolgus and mouse TfR was assessed using SPR at pH 7.4. Experiments were run on a Bruker MASS-2 instrument with HBS-EP+ as running buffer and sample diluent (Cytiva Life Sciences, #BR100826). HCA sensor chips (Bruker, #1862614) were immobilized with anti-His antibody (His capture kit, Cytiva Life Sciences, #28995056) following manufacturer's instructions. About 10,000 RU of anti-His was obtained. His-tagged hTfR ectodomain (SEQ ID NO: 39), cTfR ectodomain (SEQ ID NO: 40) or mouse TfR ectodomain (SEQ ID NO: 41) (5 μg/ml) was captured for 1 min at 10 μL/min. Concentration series of the humanized Fab variants were then injected for 4 min at 30 μL/min over hTfR surfaces and dissociation was monitored for 5 min. Surface was regenerated with one 1 min pulse of 10 mM glycine-HCl at pH 1.5.
# [7] = biological target: T3, His-tagged human TfR ectodomain (hTFRC_89-760_G142S; mature protein) (human, UniProt P02786 89-760); experiment: as above
# T3 construct: It carries the G142S haplotype; also called hTfR ectodomain
# Protocol: as §2
# [8] = biological target: B1; experiment: BLI; KD on cTfR against KD on hTfR
# Excerpt: as §1
# [9] = biological target: T2, hTfR: AviTag fused to the N-terminus of …; experiment: BLI (Octet), biotinylated AviTag-TfR ectodomain on streptavidin probes, 1:1 global fit; remark: listed apart in the source
# Excerpt: as §1
# [10] = biological target: B1; experiment: as above
# Excerpt: as §1
# [11] = biological target: T4, anti-TfR 531v25-Fab-FcOL-GAA; experiment: as above
# T4 construct: Monovalent Fab-FcOL with GAA fused to the C-terminus of the Fc polypeptide
# Excerpt: as §1
Cynomolgus/human KD ratio [1],Kd [2],Kd [3],Kd [4],Kd [5],Kd [6],Kd [7],Cynomolgus/human KD ratio [8],Kd [9],Kd [10],Kd [11],Binder
4.7,22.1 nM,44 nM,22.1 nM,103 nM,124 nM and 140 nM and 109 nM,11.8 nM and 15 nM and 8.5 nM,4.7,22.1 nM,103 nM,,"531v25Fab-FcOL (other, Monovalent heterotrimer; It has a full IgG1 heavy chain (NNAS, hole, RF), a kappa light chain and an Fc polypeptide (knob) that dimerizes with the heavy chain) heavy: QVQLVQSGAEVKKPGASVKVSCKASGYTFTRYYLNWVRQAPGQGLEWIGMIDPSVSETHYAQKFQGRATLTVDKSTSTAYMELSSLRSEDTAVYYCSQIRLPYYYAMDSWGQGTTVTVSSASTKGPSVFPLAPSSKSTSGGTAALGCLVKDYFPEPVTVSWNSGALTSGVHTFPAVLQSSGLYSLSSVVTVPSSSLGTQTYICNVNHKPSNTKVDKKVEPKSCDKTHTCPPCPAPELLGGPSVFLFPPKPKDTLMISRTPEVTCVVVDVSHEDPEVKFNWYVDGVEVHNAKTKPREEQYNNASRVVSVLTVLHQDWLNGKEYKCKVSNKALPAPIEKTISKAKGQPREPQVCTLPPSRDELTKNQVSLSCAVKGFYPSDIAVEWESNGQPENNYKTTPPVLDSDGSFFLVSKLTVDKSRWQQGNVFSCSVMHEALHNRFTQKSLSLSPG light: not shown DKTHTCPPCPAPELLGGPSVFLFPPKPKDTLMISRTPEVTCVVVDVSHEDPEVKFNWYVDGVEVHNAKTKPREEQYNNASRVVSVLTVLHQDWLNGKEYKCKVSNKALPAPIEKTISKAKGQPREPQVYTLPPCRDELTKNQVSLWCLVKGFYPSDIAVEWESNGQPENNYKTTPPVLDSDGSFFLYSKLTVDKSRWQQGNVFSCSVMHEALHNHYTQKSLSLSPG"
,,,,,,,,,,69.9 nM,B1
